Columns and labels:
[1] = molecular target: human plasminogen (human); test: SPR; Biacore 3000; ten micrograms of human C7, C9 or plasminogen conjugated on a CM5 chip (2823, 2034 and 2106 RU); 0.0625 to 1 uM histidine tagged CspA protein flowed over at 10 uL/min, 25°C; 1:1 Langmuir model
[2] = molecular target: human complement C9 (human) (UniProt P02748); test: as above
[3] = molecular target: human complement C7 (human) (UniProt P10643); test: as above
[4] = molecular target: factor H (FH) from mouse, purified (mouse (Mus musculus)) (UniProt P06909); test: ELISA; one microgram of FH coated on microtiter wells; 0.03125 to 2 μM histidine-tagged CspA proteins or DbpA added; detected by mouse anti-histidine tag; KD from a one-site fit of OD405
[5] = molecular target: factor H (FH) from human, purified (human) (UniProt P08603); test: as above
[6] = molecular target: factor H (FH) from mouse, purified (mouse (Mus musculus)) (UniProt P06909); test: SPR; Biacore 3000; ten micrograms of FH from human, mouse or horse conjugated to a CM5 chip; CspA proteins injected at 10 μL/min, 25°C; 1:1 Langmuir model
[7] = molecular target: factor H (FH) from human, purified (human) (UniProt P08603); test: as above
[8] = molecular target: factor H (FH) from horse (horse); test: ELISA; one microgram of FH coated on microtiter wells; 0.03125 to 2 μM histidine-tagged CspA proteins or DbpA added; detected by mouse anti-histidine tag; KD from a one-site fit of OD405
[9] = molecular target: factor H (FH) from Coturnix quail (Coturnix coturnix quail); test: as above
[10] = molecular target: factor H (FH) from horse (horse); test: SPR; Biacore 3000; ten micrograms of FH from human, mouse or horse conjugated to a CM5 chip; CspA proteins injected at 10 μL/min, 25°C; 1:1 Langmuir model

human complement C9 (human), sequence (P02748 22-559): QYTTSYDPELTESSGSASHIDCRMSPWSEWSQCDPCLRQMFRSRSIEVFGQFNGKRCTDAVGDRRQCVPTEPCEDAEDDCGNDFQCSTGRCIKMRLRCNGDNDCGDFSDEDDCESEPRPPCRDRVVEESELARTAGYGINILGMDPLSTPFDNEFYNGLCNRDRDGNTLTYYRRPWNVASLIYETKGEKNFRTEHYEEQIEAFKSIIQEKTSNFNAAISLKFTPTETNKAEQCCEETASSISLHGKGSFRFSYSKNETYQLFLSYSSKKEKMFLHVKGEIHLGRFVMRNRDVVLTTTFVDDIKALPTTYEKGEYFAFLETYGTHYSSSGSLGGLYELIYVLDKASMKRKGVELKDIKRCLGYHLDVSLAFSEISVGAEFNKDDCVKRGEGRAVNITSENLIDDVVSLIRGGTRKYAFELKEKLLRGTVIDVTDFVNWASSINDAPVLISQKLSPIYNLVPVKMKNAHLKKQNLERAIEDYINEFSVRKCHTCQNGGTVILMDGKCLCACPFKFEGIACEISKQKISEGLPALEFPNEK
factor H (FH) from mouse, purified (mouse (Mus musculus)), sequence (P06909 19-1234): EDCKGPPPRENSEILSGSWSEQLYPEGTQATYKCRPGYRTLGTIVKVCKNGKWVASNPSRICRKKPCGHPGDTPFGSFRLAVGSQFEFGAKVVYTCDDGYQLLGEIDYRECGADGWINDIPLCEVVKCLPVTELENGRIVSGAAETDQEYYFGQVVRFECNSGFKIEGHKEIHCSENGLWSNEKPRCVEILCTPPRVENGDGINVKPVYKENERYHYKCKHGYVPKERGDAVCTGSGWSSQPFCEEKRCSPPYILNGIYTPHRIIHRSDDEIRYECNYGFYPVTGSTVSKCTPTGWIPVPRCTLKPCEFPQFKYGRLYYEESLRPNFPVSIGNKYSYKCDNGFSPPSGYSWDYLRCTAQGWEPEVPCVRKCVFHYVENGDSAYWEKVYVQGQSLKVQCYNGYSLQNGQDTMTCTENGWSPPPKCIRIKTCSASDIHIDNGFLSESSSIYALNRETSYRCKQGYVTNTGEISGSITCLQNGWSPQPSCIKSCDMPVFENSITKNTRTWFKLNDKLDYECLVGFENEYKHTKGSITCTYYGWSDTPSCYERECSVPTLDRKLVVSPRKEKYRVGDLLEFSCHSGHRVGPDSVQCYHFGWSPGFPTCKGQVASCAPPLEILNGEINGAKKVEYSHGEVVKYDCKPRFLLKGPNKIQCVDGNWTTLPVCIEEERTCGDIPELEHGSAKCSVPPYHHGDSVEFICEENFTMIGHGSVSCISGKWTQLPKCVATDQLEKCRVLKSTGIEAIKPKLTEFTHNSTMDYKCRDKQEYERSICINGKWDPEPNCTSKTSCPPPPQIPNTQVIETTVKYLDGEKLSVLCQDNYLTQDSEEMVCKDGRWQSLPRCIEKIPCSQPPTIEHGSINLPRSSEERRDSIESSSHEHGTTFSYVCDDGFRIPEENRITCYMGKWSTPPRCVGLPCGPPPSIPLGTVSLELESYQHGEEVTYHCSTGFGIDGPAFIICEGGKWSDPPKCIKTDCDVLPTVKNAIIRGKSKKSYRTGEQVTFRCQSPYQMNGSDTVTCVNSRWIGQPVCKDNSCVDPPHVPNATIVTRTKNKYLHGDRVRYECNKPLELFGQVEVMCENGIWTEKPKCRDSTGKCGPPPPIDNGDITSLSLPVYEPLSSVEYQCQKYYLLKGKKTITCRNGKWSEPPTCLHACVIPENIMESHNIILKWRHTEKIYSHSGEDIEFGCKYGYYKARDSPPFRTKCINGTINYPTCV
factor H (FH) from human, purified (human), sequence (P08603 19-1231): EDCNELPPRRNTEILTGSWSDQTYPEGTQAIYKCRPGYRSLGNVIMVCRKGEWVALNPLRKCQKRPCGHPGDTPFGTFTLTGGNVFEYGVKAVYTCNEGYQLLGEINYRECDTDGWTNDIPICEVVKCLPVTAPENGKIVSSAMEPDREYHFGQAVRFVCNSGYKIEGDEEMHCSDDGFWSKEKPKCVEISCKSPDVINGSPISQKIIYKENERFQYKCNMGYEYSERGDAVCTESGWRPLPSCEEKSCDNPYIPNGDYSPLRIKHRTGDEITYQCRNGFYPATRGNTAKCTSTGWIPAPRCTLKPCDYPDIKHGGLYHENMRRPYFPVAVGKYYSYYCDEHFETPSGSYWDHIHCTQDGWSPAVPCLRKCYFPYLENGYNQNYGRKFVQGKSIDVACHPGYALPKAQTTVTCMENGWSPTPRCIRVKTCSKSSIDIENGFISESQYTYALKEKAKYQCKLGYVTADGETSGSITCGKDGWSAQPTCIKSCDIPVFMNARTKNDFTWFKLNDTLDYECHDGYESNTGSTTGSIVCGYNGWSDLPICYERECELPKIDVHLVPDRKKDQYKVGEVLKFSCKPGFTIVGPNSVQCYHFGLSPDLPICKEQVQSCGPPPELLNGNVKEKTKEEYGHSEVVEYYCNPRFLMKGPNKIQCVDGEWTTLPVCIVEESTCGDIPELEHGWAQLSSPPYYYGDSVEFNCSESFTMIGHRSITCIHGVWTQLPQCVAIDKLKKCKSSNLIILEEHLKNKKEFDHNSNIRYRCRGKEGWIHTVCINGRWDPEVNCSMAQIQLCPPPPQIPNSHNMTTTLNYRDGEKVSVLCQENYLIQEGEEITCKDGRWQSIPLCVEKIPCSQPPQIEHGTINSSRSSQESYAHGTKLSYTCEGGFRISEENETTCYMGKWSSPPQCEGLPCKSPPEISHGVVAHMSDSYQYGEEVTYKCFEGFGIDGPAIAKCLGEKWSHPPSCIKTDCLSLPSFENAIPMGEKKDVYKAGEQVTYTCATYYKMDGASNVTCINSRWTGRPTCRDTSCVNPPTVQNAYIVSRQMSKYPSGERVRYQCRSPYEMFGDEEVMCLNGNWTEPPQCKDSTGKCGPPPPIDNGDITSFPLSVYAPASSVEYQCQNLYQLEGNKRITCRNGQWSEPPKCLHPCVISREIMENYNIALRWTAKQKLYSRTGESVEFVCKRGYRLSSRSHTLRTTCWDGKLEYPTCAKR
human complement C7 (human), sequence (P10643 23-843): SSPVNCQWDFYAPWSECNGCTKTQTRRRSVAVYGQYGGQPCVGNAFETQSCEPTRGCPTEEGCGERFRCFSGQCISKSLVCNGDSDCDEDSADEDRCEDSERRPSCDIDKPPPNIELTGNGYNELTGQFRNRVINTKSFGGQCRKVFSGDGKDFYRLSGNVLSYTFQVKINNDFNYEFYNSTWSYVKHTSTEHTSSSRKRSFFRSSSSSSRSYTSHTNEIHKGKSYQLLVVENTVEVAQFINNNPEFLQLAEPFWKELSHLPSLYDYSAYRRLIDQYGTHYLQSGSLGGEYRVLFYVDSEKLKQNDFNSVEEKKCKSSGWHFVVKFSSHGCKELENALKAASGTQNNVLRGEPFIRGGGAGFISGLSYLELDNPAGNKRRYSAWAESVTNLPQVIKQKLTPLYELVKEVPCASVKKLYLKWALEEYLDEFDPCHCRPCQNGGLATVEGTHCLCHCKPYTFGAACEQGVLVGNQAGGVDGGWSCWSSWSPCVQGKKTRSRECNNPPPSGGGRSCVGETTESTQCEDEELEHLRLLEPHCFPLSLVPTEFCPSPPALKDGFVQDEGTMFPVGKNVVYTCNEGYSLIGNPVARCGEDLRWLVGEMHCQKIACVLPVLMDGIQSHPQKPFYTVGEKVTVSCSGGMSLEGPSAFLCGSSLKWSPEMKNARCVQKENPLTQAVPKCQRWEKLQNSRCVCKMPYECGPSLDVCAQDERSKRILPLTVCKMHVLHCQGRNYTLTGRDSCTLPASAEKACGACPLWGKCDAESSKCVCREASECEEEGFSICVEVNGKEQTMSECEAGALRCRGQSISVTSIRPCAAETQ

CspA (Bba68) from B. burgdorferi strain B31, histidine tagged, residue 26 to 252 (domain or fragment)
Kd [1]: 6.35 µM
koff [1]: 0.26 s⁻¹
kon [1]: 43000 M⁻¹ s⁻¹
Kd [2]: 5.47 µM
koff [2]: 0.32 s⁻¹
kon [2]: 60000 M⁻¹ s⁻¹
Kd [3]: 5.26 µM
koff [3]: 0.45 s⁻¹
kon [3]: 94000 M⁻¹ s⁻¹

CspA (Bba68) from B. burgdorferi strain B31, histidine tagged, residue 26 to 252 with leucine-246 replaced by aspartate (domain or fragment)
Kd [1]: 6.48 µM
koff [1]: 0.29 s⁻¹
kon [1]: 49000 M⁻¹ s⁻¹
Kd [2]: 5.4 µM
koff [2]: 0.36 s⁻¹
kon [2]: 70000 M⁻¹ s⁻¹
Kd [3]: 3.5 µM
koff [3]: 0.38 s⁻¹
kon [3]: 143000 M⁻¹ s⁻¹

recombinant histidine-tagged CspA of B. afzelii strain PKo (CspAPKo) (from UniProt G0IU82 1-241) (natural protein)
Kd [4]: 760 nM
Kd [5]: 160 nM
Kd [6]: 460 nM
koff [6]: 0.048 s⁻¹
kon [6]: 115000 M⁻¹ s⁻¹
Kd [7]: 110 nM
koff [7]: 0.014 s⁻¹
kon [7]: 152000 M⁻¹ s⁻¹

recombinant histidine-tagged CspA of B. burgdorferi strain B31 (CspAB31) (natural protein)
Kd [4]: 230 nM
Kd [8]: 880 nM
Kd [9]: 920 nM
Kd [5]: 410 nM
Kd [6]: 70 nM
koff [6]: 0.012 s⁻¹
kon [6]: 188000 M⁻¹ s⁻¹
Kd [10]: 550 nM
koff [10]: 0.014 s⁻¹
kon [10]: 30000 M⁻¹ s⁻¹
Kd [7]: 200 nM
koff [7]: 0.017 s⁻¹
kon [7]: 114000 M⁻¹ s⁻¹

recombinant histidine-tagged CspA of B. garinii strain ZQ1 (CspAZQ1) (natural protein)
Kd [9]: 360 nM

From PMC5993331
